What was measured:
[1] = molecular target: 4xSUMO2ΔN11 (tetra-SUMO2); experiment: ITC binding to linear tetra-SUMO2 (4xSUMO2ΔN11); conditions: 50 mM Tris/HCl pH 7.5, 150 mM NaCl, 2 mM DTT, 5% glycerol, 25°C, averaged from two to six titrations, read-out: Dissociation constant (KD), 4xSUMO2ΔN11 (tetra-SUMO2)
Description: (§1) For expression in Escherichia coli, linear poly-SUMO chains were generated as described previously with slight modifications. After the combined PCR/ligation reaction, the 4×SUMO2-ΔN11 or 4×SUMO1-ΔN15 DNA polymers were separated from smaller polymers by agarose gel electrophoresis and individually extracted (Macherey–Nagel). These were then subjected to a second PCR with primers to create BamHI and XhoI restriction sites, a C-terminal GG motif and a stop codon. The resulting fragments coding for di-, tri- and tetra-SUMO2-ΔN11 or SUMO1-ΔN15 chains were amplified and cloned into pGEX-4T2. […] Each monomer in these chains is separated by RS replacing the natural GG motif. A similar strategy was used to design C-terminally GFP–HA2-tagged linear poly-SUMOs in the copper-inducible Ycplac22 vector for expression in S. cerevisiae. […]
(§2) The mono-SUMOs and linear poly-SUMO1 and poly-SUMO2 proteins as well as all RNF4 constructs were expressed as GST-fusion proteins from E. coli Rosetta™ 2(DE3)pLysS cells (Novagen) cultivated in LB medium with 100 μg/ml ampicillin and 30 μg/ml chloramphenicol after induction with 0.1 mM IPTG at 20°C for 12 h. […]
(§3) Binding of peptides and proteins to SUMOs was investigated by ITC using either a VP-ITC or an ITC200 (GE Healthcare). […] Protein concentrations were determined by measuring the absorption at 280 nm. […]

3xSUMO2ΔN11 (tri-SUMO2) = experiment: ITC binding to linear tri-SUMO2 (3xSUMO2ΔN11)
Description: as §1, §2, §3

[2] = molecular target: native 2xSUMO2 ('native' Lys^11-linked di-SUMO2 chains); experiment: ITC binding to native Lys^11-linked di-SUMO2; conditions: 50 mM Tris/HCl pH 7.5, 150 mM NaCl, 2 mM DTT, 5% glycerol, 25°C, averaged from two to six titrations, chains produced by in vitro SUMOylation, read-out: Dissociation constant (KD), native Lys^11-linked di-SUMO2
Method: The mono-SUMOs and linear poly-SUMO1 and poly-SUMO2 proteins as well as all RNF4 constructs were expressed as GST-fusion proteins from E. coli Rosetta™ 2(DE3)pLysS cells (Novagen) cultivated in LB medium with 100 μg/ml ampicillin and 30 μg/ml chloramphenicol after induction with 0.1 mM IPTG at 20°C for 12 h. Cells were lysed by sonication in GST-buffer I (50 mM Tris/HCl, pH 7.5, 150 mM NaCl and 2 mM DTT) in the presence of protease inhibitors (1 μg/ml aprotinin, 1 μg/ml leupeptin, 1 μg/ml pepstatin, 200 μM pefabloc and 100 μM PMSF). For tetra-SUMOs and RNF4 variants, 1.5% sarkosyl, 0.1% Triton X-100 and 5% glycerol were added. The proteins were affinity purified using glutathione beads (Protino® Glutathione Agarose 4B, Macherey–Nagel) and eluted by thrombin cleavage. The supernatant was subjected to anion exchange chromatography and further purified by SEC (size-exclusion chromatography) into ITC buffer (50 mM Tris/HCl, pH 7.5, 150 mM NaCl, 2 mM DTT and 5% glycerol) or in crystallization buffer (20 mM Tris/HCl, pH 7.5, and 100 mM NaCl). Native SUMO2 chains were produced by in vitro SUMOylation as described recently and subsequently purified by affinity chromatography and SEC.
as §3

[3] = molecular target: 4xSUMO1ΔN15 (tetra-SUMO1); experiment: ITC binding to linear tetra-SUMO1 (4xSUMO1ΔN15); conditions: 50 mM Tris/HCl pH 7.5, 150 mM NaCl, 2 mM DTT, 5% glycerol, 25°C, averaged from two to six titrations, read-out: Dissociation constant (KD), 4xSUMO1ΔN15 (tetra-SUMO1)
Description: as §1, §2, §3

2xSUMO1ΔN15 (di-SUMO1) = experiment: ITC binding to linear di-SUMO1 (2xSUMO1ΔN15); conditions: 50 mM Tris/HCl pH 7.5, 150 mM NaCl, 2 mM DTT, 5% glycerol, 25°C, averaged from two to six titrations, read-out: Dissociation constant (KD), 2xSUMO1ΔN15 (linear di-SUMO1)
Description: as §1, §2, §3

[4] = tested on: mono-SUMOs and SUMO chains; experiment: ITC binding to mono-SUMOs and SUMO chains (general statements); conditions: mono-SUMO1 and mono-SUMO2
Description: as §1, §2, §3

2xSUMO2ΔN11 (di-SUMO2) = molecular target: T1, 2xSUMO2ΔN11 (di-SUMO2) (Homo sapiens, UniProt P61956); experiment: ITC binding to linear di-SUMO2 (2xSUMO2ΔN11); conditions: 50 mM Tris/HCl pH 7.5, 150 mM NaCl, 2 mM DTT, 5% glycerol, 25°C, averaged from two to six titrations, read-out: Dissociation constant (KD), 2xSUMO2ΔN11 (linear di-SUMO2)
T1 construct: Each monomer in these chains is separated by RS replacing the natural GG motif; a C-terminal GG motif and a stop codon; GST (N, cleaved yes); made in house; host or cells: E. coli Rosetta 2(DE3)pLysS
Description: as §1, §2, §3

T1 sequence (P61956 with tags, fused parts or gaps): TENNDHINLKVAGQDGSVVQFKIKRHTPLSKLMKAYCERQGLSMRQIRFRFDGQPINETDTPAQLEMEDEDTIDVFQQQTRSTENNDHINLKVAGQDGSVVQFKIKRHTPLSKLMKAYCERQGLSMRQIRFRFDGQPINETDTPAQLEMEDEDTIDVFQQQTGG

B1: SIM domain: construct comprising the entire N-terminal part of RNF4 upstream of the RING domain (N-terminal 1–125 amino acids) (protein)
chain: MSTRKRRGGAINSRQAQKRTREATSTPEISLEAEPIELVETAGDEIVDLTCESLEPVVVDLTHNDSVVIVDERRRPRRNARRLPQDHADSCVVSSDDEELSRDRDVYVTTHTPRNARDEGATGLR
modifications: left off: GST, end not stated, cleaved
- Kd [1]: 1.6 µM
- Kd (3xSUMO2ΔN11 (tri-SUMO2); 50 mM Tris/HCl pH 7.5, 150 mM NaCl, 2 mM DTT, 5% glycerol, 25°C, averaged from two to six titrations, read-out: Dissociation constant (KD), 3xSUMO2ΔN11 (tri-SUMO2)): 19 µM
- affinity for tri-SUMO compared with di-SUMO (3xSUMO2ΔN11 (tri-SUMO2); tri-SUMO2): did not result in an increase in affinity
- Kd [2]: 11 µM
- Kd [3]: 4.3 µM
- Kd (2xSUMO1ΔN15 (di-SUMO1)): 17 µM
- affinity for mono-SUMOs [4]: very weak
- Kd (2xSUMO2ΔN11 (di-SUMO2)): 14 µM

From paper PMC3901395, “Multivalent interactions of the SUMO-interaction motifs in RING finger protein 4 determine the specificity for chains of the SUMO” (Biochemical Journal, 2013)
